From patent publication US20200262877A1, “ION CHANNEL-BINDING PEPTIDES AND METHODS OF USE THEREOF” (priority 2017, published 2020)

Legend:
5HT3a = biological target: T1, 5HT3a (Homo sapiens, UniProt P46098); assay: Ion channel panel (IonWorks Barracuda): 5HT3a; format: cell-based
T1 construct: host or cells: HEK293 or CHO
T1 sequence (P46098 whole entry, looked up): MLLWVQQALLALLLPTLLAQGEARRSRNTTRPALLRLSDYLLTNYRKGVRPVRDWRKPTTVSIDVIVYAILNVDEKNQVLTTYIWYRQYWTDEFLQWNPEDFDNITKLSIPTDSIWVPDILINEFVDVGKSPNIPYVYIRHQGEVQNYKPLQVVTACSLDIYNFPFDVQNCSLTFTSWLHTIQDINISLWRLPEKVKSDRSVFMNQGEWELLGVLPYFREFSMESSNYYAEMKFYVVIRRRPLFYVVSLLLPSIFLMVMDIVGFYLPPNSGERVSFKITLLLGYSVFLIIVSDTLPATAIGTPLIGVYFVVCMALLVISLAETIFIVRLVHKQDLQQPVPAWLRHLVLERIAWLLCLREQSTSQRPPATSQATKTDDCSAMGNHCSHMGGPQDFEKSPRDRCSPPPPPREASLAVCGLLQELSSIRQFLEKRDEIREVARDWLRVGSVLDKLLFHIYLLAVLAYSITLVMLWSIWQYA
How it was run: (§1)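 Peptides were tested in duplicate at final 20 μM and 200 nM, with concentration set by amino acid analysis, in HEPES-buffered saline. They were applied for at least 5 min to HEK293 or CHO cells transfected with each channel. Currents were expressed as % inhibition, 1-(Ipeptide/Icontrol)×100, or % activation, Ipeptide/Icontrol×100, against a channel-matched reference compound.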

Kv1.3 = biological target: T2, Kv1.3 (Homo sapiens, UniProt P22001); assay: cell-based; format: cell-based; conditions: 100% = no change, <100% = inhibition
T2 construct: host or cells: HEK293 or CHO
How it was run: as §1

Kv1.1 = biological target: T3, Kv1.1 (Homo sapiens, UniProt Q09470); assay: cell-based; format: cell-based; conditions: 100% = no change, <100% = inhibition
T3 construct: host or cells: HEK293 or CHO
How it was run: as §1

Kv1.2 = biological target: T4, Kv1.2 (Homo sapiens, UniProt P16389); assay: cell-based; format: cell-based; conditions: 100% = no change, <100% = inhibition
T4 construct: host or cells: HEK293 or CHO
How it was run: as §1

α4β2 = biological target: T5, α4β2 (Homo sapiens, UniProt P17787+P43681); assay: Ion channel panel (IonWorks Barracuda): α4β2; format: cell-based; conditions: 100% = no change, <100% = inhibition
T5 construct: host or cells: HEK293 or CHO
How it was run: as §1

α3β4 = biological target: T6, α3β4 (Homo sapiens, UniProt P30926+P32297); assay: Ion channel panel (IonWorks Barracuda): α3β4; format: cell-based; conditions: 100% = no change, <100% = inhibition
T6 construct: host or cells: HEK293 or CHO
How it was run: as §1

GABA = assay: Ion channel panel (IonWorks Barracuda): GABA; format: cell-based; conditions: 100% = no change, <100% = inhibition
How it was run: as §1

TRPV1 = biological target: T7, TRPV1 (Homo sapiens, UniProt Q8NER1); assay: Ion channel panel (IonWorks Barracuda): TRPV1; format: cell-based; conditions: 100% = no change, <100% = inhibition
T7 construct: host or cells: HEK293 or CHO
How it was run: as §1

hERG = hERG (Homo sapiens, UniProt Q12809); assay: in vitro; conditions: 100% = no change, <100% = inhibition
How it was run: as §1

Nav1.5 = Nav1.5 (Homo sapiens, UniProt Q14524); assay: in vitro; conditions: 100% = no change; for Activity of Nav1.5 with peptide, expressed as a percentage of the reference compound: peptide at 0.2 μM; for Activity of Nav1.5 with peptide (percentage of the reference compound): peptide at 20 μM
How it was run: as §1

NR2B = biological target: T8, NR2B (Homo sapiens, UniProt Q13224); assay: Ion channel panel (IonWorks Barracuda): NR2B; format: cell-based; conditions: 100% = no change, <100% = inhibition
T8 construct: host or cells: HEK293 or CHO
How it was run: as §1

Kir2.1 = biological target: T9, Kir2.1 (Homo sapiens, UniProt P63252); assay: Ion channel panel (IonWorks Barracuda): Kir2.1; format: cell-based; conditions: 100% = no change, <100% = inhibition
T9 construct: host or cells: HEK293 or CHO
How it was run: as §1

Kv2.1 = biological target: T10, Kv2.1 (Homo sapiens, UniProt Q14721); assay: cell-based; conditions: 100% = no change, <100% = inhibition
T10 construct: host or cells: HEK293 or CHO
How it was run: as §1

Cav2.2 = biological target: T11, Cav2.2 (Homo sapiens, UniProt Q00975); assay: cell-based; conditions: 100% = no change, <100% = inhibition
T11 construct: host or cells: HEK293 or CHO
How it was run: as §1

Cav2.1 = biological target: T12, Cav2.1 (Homo sapiens, UniProt O00555); assay: cell-based; conditions: 100% = no change, <100% = inhibition
T12 construct: host or cells: HEK293 or CHO
How it was run: as §1

NR2A = biological target: T13, NR2A (Homo sapiens, UniProt Q12879); assay: Ion channel panel (IonWorks Barracuda): NR2A; format: cell-based; conditions: 100% = no change, <100% = inhibition
T13 construct: host or cells: HEK293 or CHO
How it was run: as §1

Nav1.7 = biological target: T14, Nav1.7 (Homo sapiens, UniProt Q15858); assay: cell-based; format: cell-based; conditions: 100% = no change; for Activity of Nav1.7 with peptide, expressed as a percentage of the reference compound: peptide at 0.2 μM; for Activity of Nav1.7 with peptide (percentage of the reference compound): peptide at 20 μM
T14 construct: host or cells: HEK293 or CHO

TRPA1 = biological target: T15, TRPA1 (Homo sapiens, UniProt O75762); assay: Ion channel panel (IonWorks Barracuda): TRPA1; format: cell-based; conditions: 100% = no change, <100% = inhibition
T15 construct: host or cells: HEK293 or CHO
How it was run: as §1

[1] = first of two Nav1.5 columns (probably TP1)
[2] = second of two Nav1.5 columns (probably TP2)
[3] = first of two Nav1.7 columns (probably TP1)
[4] = second of two Nav1.7 columns (probably TP2)

Sequence of Nav1.5 (Q14524 whole entry): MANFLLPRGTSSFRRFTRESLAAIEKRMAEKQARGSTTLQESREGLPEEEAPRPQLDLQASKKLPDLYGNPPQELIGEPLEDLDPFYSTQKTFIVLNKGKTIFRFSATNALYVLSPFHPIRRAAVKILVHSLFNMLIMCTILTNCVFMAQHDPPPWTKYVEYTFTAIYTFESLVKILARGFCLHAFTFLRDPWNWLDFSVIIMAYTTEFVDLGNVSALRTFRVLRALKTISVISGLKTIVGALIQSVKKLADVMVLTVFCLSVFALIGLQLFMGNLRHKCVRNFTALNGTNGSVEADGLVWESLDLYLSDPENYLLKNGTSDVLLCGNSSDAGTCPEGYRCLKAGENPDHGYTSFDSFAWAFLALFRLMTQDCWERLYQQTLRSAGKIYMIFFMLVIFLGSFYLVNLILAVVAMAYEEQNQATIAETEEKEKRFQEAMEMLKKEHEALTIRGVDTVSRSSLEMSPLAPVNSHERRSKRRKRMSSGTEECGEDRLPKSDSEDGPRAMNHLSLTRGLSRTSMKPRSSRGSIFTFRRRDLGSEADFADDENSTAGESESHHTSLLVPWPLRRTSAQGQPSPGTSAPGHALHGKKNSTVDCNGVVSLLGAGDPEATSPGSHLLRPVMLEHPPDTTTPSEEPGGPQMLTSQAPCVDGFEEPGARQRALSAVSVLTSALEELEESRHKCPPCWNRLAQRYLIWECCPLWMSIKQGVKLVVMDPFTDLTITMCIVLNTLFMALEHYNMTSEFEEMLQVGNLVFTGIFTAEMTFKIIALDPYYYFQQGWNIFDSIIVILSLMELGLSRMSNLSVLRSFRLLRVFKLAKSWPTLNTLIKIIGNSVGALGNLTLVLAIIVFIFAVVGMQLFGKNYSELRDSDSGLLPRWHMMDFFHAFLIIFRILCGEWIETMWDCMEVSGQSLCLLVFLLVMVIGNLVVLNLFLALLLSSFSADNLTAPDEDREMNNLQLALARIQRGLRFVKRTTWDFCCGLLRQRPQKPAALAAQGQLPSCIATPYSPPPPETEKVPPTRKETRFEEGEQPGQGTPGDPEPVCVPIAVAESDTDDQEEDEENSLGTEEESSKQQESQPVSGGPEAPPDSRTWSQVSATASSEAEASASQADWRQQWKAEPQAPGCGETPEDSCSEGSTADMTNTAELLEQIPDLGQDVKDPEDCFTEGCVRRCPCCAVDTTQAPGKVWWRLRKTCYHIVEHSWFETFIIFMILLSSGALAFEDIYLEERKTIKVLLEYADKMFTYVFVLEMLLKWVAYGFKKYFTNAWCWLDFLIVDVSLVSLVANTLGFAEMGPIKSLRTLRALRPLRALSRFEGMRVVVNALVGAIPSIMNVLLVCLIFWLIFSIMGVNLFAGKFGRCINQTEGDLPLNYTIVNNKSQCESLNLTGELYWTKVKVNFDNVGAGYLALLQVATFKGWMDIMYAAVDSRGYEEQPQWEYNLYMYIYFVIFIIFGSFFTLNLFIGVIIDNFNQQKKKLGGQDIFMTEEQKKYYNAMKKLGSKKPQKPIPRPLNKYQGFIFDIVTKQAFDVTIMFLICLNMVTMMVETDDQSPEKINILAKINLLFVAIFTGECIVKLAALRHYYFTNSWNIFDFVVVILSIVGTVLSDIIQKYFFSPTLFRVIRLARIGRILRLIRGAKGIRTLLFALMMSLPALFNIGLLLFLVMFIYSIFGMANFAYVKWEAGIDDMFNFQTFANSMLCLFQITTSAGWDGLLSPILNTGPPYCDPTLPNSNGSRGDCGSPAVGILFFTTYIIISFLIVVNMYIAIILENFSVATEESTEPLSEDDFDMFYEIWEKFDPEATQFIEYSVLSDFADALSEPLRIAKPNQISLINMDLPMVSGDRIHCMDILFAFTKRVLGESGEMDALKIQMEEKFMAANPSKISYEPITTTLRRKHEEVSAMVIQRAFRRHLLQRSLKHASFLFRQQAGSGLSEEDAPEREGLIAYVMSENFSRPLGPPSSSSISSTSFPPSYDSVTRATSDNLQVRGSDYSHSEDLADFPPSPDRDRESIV
T14 sequence (Q15858 whole entry): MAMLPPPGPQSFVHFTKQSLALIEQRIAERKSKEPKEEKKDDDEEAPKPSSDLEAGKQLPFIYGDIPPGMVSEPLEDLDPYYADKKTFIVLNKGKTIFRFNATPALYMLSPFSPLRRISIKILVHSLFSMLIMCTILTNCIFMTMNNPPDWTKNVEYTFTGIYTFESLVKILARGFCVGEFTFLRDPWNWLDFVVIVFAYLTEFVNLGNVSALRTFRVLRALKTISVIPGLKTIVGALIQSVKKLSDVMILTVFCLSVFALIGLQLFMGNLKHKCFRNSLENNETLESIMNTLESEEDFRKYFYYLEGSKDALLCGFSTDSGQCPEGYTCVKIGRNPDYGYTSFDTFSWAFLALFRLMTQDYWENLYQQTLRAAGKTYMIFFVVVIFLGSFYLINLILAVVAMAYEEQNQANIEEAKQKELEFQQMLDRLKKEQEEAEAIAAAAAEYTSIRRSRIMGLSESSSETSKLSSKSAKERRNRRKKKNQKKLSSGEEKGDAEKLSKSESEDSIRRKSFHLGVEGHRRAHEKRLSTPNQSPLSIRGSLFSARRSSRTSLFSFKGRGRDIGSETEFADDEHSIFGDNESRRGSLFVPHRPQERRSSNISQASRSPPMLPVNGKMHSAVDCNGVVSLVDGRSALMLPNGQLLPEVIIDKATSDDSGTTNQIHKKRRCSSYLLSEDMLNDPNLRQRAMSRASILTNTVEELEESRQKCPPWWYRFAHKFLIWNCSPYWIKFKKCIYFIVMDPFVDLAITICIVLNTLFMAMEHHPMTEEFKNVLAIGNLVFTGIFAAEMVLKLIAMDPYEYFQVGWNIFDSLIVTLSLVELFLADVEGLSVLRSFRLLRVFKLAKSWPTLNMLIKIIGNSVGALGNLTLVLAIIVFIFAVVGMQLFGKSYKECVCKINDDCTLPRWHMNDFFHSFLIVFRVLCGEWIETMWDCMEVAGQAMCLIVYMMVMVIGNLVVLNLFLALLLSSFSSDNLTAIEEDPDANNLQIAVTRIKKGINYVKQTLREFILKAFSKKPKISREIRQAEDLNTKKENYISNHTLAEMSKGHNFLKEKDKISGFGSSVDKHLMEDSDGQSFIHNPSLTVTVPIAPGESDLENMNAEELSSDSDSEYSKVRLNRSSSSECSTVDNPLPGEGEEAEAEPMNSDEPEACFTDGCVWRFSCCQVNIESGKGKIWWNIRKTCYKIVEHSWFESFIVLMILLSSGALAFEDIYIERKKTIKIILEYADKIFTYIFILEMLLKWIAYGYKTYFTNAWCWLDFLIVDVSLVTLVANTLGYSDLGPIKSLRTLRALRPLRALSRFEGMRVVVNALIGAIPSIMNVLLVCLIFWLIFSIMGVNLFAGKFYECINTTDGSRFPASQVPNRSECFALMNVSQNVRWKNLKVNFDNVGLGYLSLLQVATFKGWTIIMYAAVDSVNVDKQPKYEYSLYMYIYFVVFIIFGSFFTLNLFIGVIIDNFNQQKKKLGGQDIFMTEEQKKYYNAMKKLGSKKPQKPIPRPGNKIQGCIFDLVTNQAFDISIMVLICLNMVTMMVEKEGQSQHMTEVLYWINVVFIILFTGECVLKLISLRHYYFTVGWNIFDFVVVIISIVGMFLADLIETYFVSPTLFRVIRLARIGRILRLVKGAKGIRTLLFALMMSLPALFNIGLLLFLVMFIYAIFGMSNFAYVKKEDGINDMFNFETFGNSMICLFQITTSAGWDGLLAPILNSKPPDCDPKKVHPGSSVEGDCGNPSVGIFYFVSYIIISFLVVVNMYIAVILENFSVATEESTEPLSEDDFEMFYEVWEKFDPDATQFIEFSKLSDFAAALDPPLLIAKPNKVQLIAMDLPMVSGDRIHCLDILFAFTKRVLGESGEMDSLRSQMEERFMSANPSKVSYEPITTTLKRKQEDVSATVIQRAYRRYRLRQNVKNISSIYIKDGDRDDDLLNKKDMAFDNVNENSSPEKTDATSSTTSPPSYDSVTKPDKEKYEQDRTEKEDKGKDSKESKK
T5 sequence (P43681 29-627): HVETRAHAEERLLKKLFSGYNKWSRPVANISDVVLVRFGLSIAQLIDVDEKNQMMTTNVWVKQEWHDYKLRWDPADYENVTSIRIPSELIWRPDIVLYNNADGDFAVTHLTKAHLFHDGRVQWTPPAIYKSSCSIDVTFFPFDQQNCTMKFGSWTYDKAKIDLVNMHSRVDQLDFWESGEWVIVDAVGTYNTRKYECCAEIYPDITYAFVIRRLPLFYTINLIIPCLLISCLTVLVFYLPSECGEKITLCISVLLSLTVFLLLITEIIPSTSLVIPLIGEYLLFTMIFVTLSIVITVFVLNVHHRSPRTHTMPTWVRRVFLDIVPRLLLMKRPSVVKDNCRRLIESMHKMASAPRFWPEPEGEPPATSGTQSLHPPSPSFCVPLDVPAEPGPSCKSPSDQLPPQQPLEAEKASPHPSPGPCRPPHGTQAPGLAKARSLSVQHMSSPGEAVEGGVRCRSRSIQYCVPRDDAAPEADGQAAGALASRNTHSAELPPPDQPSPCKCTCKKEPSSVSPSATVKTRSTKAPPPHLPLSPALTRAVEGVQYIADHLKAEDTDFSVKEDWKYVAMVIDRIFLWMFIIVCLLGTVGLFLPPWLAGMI
T5 sequence (P17787 26-502): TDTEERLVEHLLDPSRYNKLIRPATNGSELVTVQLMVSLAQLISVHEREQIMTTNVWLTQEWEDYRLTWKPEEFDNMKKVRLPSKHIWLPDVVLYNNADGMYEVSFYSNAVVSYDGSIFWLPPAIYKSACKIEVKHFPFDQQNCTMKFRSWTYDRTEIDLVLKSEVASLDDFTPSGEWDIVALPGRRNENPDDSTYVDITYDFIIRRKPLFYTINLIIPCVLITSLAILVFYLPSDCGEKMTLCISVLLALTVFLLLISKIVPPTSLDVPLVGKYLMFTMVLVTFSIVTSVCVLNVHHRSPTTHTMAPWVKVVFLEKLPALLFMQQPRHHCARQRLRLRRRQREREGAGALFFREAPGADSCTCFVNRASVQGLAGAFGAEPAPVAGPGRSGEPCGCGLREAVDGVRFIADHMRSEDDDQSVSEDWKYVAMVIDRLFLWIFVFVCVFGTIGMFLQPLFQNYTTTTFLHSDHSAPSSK

For “11 (GSGDCLPHLKRCKENNDCCSKKCKRRGANPEKRCR) [compound 11]”, the “Activity of 5HT3a with peptide (percentage of the reference compound)” value (5HT3a) was 85%, the “Activity of 5HT3a with peptide, expressed as a percentage of the reference compound” value (5HT3a) was 73% and the “Activity of Kv1.3 with peptide, expressed as a percentage of the reference compound” value (Kv1.3; peptide at 0.2 μM) was 101%. For the same substance, the “Activity of Kv1.3 with peptide (percentage of the reference compound)” value (Kv1.3; peptide at 20 μM) was 87%, the “Activity of Kv1.1 with peptide, expressed as a percentage of the reference compound” value (Kv1.1; peptide at 0.2 μM) was 99% and the “Activity of Kv1.1 with peptide (percentage of the reference compound)” value (Kv1.1; peptide at 20 μM) was 55%. The “Activity of Kv1.2 with peptide, expressed as a percentage of the reference compound” value (Kv1.2; peptide at 0.2 μM) was 103%, the “Activity of Kv1.2 with peptide (percentage of the reference compound)” value (Kv1.2; peptide at 20 μM) was 46% and the “Activity of a4b2 with peptide, expressed as a percentage of the reference compound” value (α4β2; peptide at 0.2 μM) was 111%. The “Activity of a4b2 with peptide (percentage of the reference compound)” value (α4β2; peptide at 20 μM) was 88%, the “Activity of a3b4 with peptide, expressed as a percentage of the reference compound” value (α3β4; peptide at 0.2 μM) was 95% and the “Activity of a3b4 with peptide (percentage of the reference compound)” value (α3β4; peptide at 20 μM) was 96%. The “Activity of GABA with peptide, expressed as a percentage of the reference compound” value (GABA; peptide at 0.2 μM) was 96%, the “Activity of GABA with peptide (percentage of the reference compound)” value (GABA; peptide at 20 μM) was 105% and the “Activity of TRPV1 with peptide, expressed as a percentage of the reference compound” value (TRPV1; peptide at 0.2 μM) was 100%. The “Activity of TRPV1 with peptide (percentage of the reference compound)” value (TRPV1; peptide at 20 μM) was 100%, the “Activity of hERG with peptide, expressed as a percentage of the reference compound” value (hERG; peptide at 0.2 μM) was 97% and the “Activity of hERG with peptide (percentage of the reference compound)” value (hERG; peptide at 20 μM) was 99%. For the same substance, the “Activity of Nav1.5 with peptide, expressed as a percentage of the reference compound” value (Nav1.5; [1]) was 107%, the “Activity of Nav1.5 with peptide, expressed as a percentage of the reference compound” value (Nav1.5; [2]) was 107% and the “Activity of Nav1.5 with peptide (percentage of the reference compound)” value (Nav1.5; [1]) was 113%. The “Activity of Nav1.5 with peptide (percentage of the reference compound)” value (Nav1.5; [2]) was 118%, the “Activity of NR2B with peptide, expressed as a percentage of the reference compound” value (NR2B; peptide at 0.2 μM) was 103% and the “Activity of NR2B with peptide (percentage of the reference compound)” value (NR2B; peptide at 20 μM) was 78%. The “Activity of Kir2.1 with peptide, expressed as a percentage of the reference compound” value (Kir2.1; peptide at 0.2 μM) was 107%, the “Activity of Kir2.1 with peptide (percentage of the reference compound)” value (Kir2.1; peptide at 20 μM) was 97% and the “Activity of Kv2.1 with peptide, expressed as a percentage of the reference compound” value (Kv2.1; peptide at 0.2 μM) was 121%. The “Activity of Kv2.1 with peptide (percentage of the reference compound)” value (Kv2.1; peptide at 20 μM) was 110%, the “Activity of Cav2.2 with peptide, expressed as a percentage of the reference compound” value (Cav2.2; peptide at 0.2 μM) was 100% and the “Activity of Cav2.2 with peptide (percentage of the reference compound)” value (Cav2.2; peptide at 20 μM) was 103%. The “Activity of Cav2.1 with peptide, expressed as a percentage of the reference compound” value (Cav2.1; peptide at 0.2 μM) was 104%, the “Activity of Cav2.1 with peptide (percentage of the reference compound)” value (Cav2.1; peptide at 20 μM) was 110% and the “Activity of NR2A with peptide, expressed as a percentage of the reference compound” value (NR2A; peptide at 0.2 μM) was 103%. The “Activity of NR2A with peptide (percentage of the reference compound)” value (NR2A; peptide at 20 μM) was 106%, the “Activity of Nav1.7 with peptide, expressed as a percentage of the reference compound” value (Nav1.7; [3]) was 107% and the “Activity of Nav1.7 with peptide, expressed as a percentage of the reference compound” value (Nav1.7; [4]) was 107%. The “Activity of Nav1.7 with peptide (percentage of the reference compound)” value (Nav1.7; [3]) was 96%, the “Activity of Nav1.7 with peptide (percentage of the reference compound)” value (Nav1.7; [4]) was 87% and the “Activity of TRPA1 with peptide, expressed as a percentage of the reference compound” value (TRPA1; peptide at 0.2 μM) was 100%. For the same substance, the “Activity of TRPA1 with peptide (percentage of the reference compound)” value (TRPA1; peptide at 20 μM) was 109%.
